Publication PMC3510253 (PLoS Pathogens, 2012)

Biological target: T1, MBP-human TRIM25-Flag (human, UniProt Q14258 1-630)
T1 construct: human TRIM25
Assay: pull-down
Conditions: both partners purified

T1 sequence (Q14258 whole entry): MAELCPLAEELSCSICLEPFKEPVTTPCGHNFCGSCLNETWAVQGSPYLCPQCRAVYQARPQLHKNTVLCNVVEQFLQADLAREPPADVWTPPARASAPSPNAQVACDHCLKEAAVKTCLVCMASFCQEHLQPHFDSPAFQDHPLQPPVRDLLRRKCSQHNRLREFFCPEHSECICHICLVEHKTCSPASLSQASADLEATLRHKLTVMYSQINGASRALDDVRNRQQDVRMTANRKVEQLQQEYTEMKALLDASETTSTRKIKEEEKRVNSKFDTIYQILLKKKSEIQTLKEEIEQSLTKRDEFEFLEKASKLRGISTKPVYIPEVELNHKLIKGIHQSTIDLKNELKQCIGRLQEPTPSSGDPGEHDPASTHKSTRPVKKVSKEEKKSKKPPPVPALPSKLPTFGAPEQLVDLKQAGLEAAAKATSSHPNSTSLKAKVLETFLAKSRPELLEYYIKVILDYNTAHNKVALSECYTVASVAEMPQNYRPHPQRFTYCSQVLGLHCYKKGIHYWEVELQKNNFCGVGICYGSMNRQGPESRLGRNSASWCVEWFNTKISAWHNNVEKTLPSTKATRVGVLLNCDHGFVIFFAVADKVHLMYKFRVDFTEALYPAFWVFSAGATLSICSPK

B1: Glutathione-S-transferase (GST)-NS1 fusion protein (PR8) (natural protein)
chain: MDPNTVSSFQVDCFLWHVRKRVADQELGDAPFLDRLRRDQKSLRGRGSTLGLDIETATRAGKQIVERILKEESDEALKMTMASVPASRYLTDMTLEEMSRDWSMLIPKQKVAGPLCIRMDQAIMDKNIILKANFSVIFDRLETLILLRAFTEEGAIVGEISPLPSLPGHTAEDVKNAVGVLIGGLEWNDNTVRVSETLQRFAWRSSNENGRPPLTPKQKREMAGTIRSEV
notes: source: bacteria, purified
binding result: binds
